Data from the nanobody polyreactivity screen of Harvey et al. (2022).

assay: yeast display, Sf9 membrane polyspecificity reagent, FACS + sequencing; frameworks hold sequencing errors
Method in brief: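 A synthetic nanobody library was expressed on Saccharomyces cerevisiae BJ5465 by galactose induction for 36–48 hours. The library was stained for 1 hour at 4 °C with 10% biotinylated, detergent-solubilized Sf9 membrane reagent and enriched with streptavidin microbeads before FACS. Low and high (top ~1%) gates were set on anti-HA fluorescence for expression and streptavidin fluorescence for reagent binding, and each polyreactivity label reflects the gate of origin.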

Row | Sequence | polyreactivity (PSR sort gate)
1 | QVQLVESGGGLVQAGGSLSLSCAASGRNFAYYAMGWYRQAPGKERELVAGISQRGSRTYYADSVKGRFTISRDNAKNTVYLQMNSLKPEDTAVYYCAARDRRSVTMDYWGQGTQVTVSS | high polyreactivity
2 | QVQLQESGGGLVQAGGSLRLSCAASGYISTFSSEMGWYRQAPGKERELVASIAPGCTTSYADSVKGRFTISRDNAKNTVYLQMNSLKPEDTAVYYCAVGNGLSRYVYGDYDYWGQGTQVTVSS | high polyreactivity
3 | QGQLVESGGGLVQAGGSLRLSSAASGSTHALYTMGWYRQARGKARQLVAAISKNGGRTYYADSVKGRFTISRDNAKNTVYVQMNSLKPEDTAVYYCAAASGSYRGYDYWGQGTQVTVSS | high polyreactivity
4 | QVQLVESGGGLVQAGGSLRLSCAASGSTFLRYAMGWYRPAPGKERELVAAISWSGGTTYYADSVKGRFTISRDNAKNTVYLQMNSLKPEDTAVYYCNTASWRAQYYYWGQGTQVTVSS | high polyreactivity
5 | QVQLVESGGGLVQAGGSLRLSCAASGIIFYYYAMGWYSPAPGKERELVAAISSGGSTYYADSVKGRFTISRDNAKNTVYLQMNSLKPEDTAVYYCAADPLYTIDIEYSTYGDFDYWGQGTQVTVSS | low polyreactivity
6 | QVQLVESGGGLVQAGGSLRLSCAASGSIFGVYTMGWYRQAPGKERELVAAISGSGGSTYYADSVKGRFTISRDNAKNTVYLQMNSLKPEDTAVYYCATRFPKIPPYDSWGQGTQVTVSS | low polyreactivity
7 | QVQLVESGGGLDQAGGSLRLSCAASGFIFRYYAMGWYRQAPGKERELVAAISRNGGSTYYADSVKGRFTISRDIAKNTVYLQMNSLKPEDTAVYYCAALTGRERYDYWGQGTQVTVSS | high polyreactivity
8 | QVQLVESGGGLVQAGGSLLLSCAASGGTIRYYAMGWSRQSPGKERELVAAISRGGTNTYYADSVKGRFTISRDNAKNTVYLQRNSLKPDDTAVYYCSAKRYSRYNYWGQGTQVTVSS | high polyreactivity
9 | QVQLVETGGGLVQAGVSHRLSFASSGSTFVEYVMGWYRQAPGKERELVARITWGGGITYYADSVKVRFTFSRDNAKNTVYLLMNRVNPEDNAVYYCAAGTITYGYGYDYWGQGTQVSVSS | low polyreactivity
10 | QVQLVESGGGLVQAGGSLRLSCAASGSIIPRNVMGWYRQAPGNERELVAAISRSGGSTSYADSVKGRFTISRDNAKNTVYLQMNSLKPEDTAVYYCKAPWQRYSAPWGQGYNYWGQGTQVTVSS | high polyreactivity
11 | QVQLVESGGGLVQAGGSLRLSCAASGFTLSKYAKGWYRPAPGKERELVAAITGSGVRTYYADSVKGRFTISRDYAKNSVYLELNSLKPEDTAVYYCATGTKKGRYRDELDCWGHGTQVTVSS | high polyreactivity
12 | QVQLVESGGCLVQAGGSLRLSCAASGRIFSGYVMGWYRQAPGKERELVAGITYRDGSTYYADSVKGRFTISRDKEKNTVYLQMNSLKPEDTAVYYCNADDYNDIPYDYWGQGTHVTVSS | low polyreactivity
13 | QVQLVESGGGLVQAGGSLRLSCAASGRIFRRYVMGWYRPAPGKERELVATINSNGGSTYYADSVKGRFTISRDNAKNTVYLQMNSLKPEDTAVYYCAAYYRWIGGRYTPYYYWGQATQVTVSS | high polyreactivity
14 | QFQLVETGGGLVQAGGSLRLSCAASGITFVRYAMGWYSQAPGKERELVAGISRGGSTNYADSVKGRFTISRDNAKNTVYLQMNSLKPEDTAVYYCNRANSFFDTHTLQFYYWGQGTQVTVSS | high polyreactivity
15 | QVQLVESGGGLVQAGGSLRLSCAASGFTFGRYAMGWYRQAPGKERELVAAISTSGGRTYYADSVKGRFTISRDNAKNTVYLQMNSLKPEDTAVYYCAAEQRRFTGYDYWGQGTQVTVSS | high polyreactivity
16 | QVQLVESGGGLVLAGGSLRLSCPASGFTFRYYAMGWSRQAPGKDRELVAAISVSGGSTYYADSVKGRFTISRDNAKNSVYLQMNILKPEDTAVYYCNARRNVGFGYWGQGTQVTVSS | high polyreactivity
17 | QVQLVESGGGLVQAGGSLRLSCAASGTTIETYASGWYRQAPGKERELVATITSGGSTYYAYSVKGRFTISRDTAKITVYLQMNSLKPEDTSVYYCAAGRYGGKHVWYYYWGQGTQVTVSS | high polyreactivity
18 | QVQLVESGGGLVQAGGTLRLSCAACGSTYYRNAMGWYRPAPGKERELVATITRSGGSTYYADSVKGRFTISRDNAKNTVYLQMNSLKPEDTAVYYCAARGWYKSDYWGQGTQVTVSS | low polyreactivity
19 | QGQLVESGGGLVQAGGSLRLSCAASGSIFSSNAMGWYRQAPGKQRELVAAIDWDSGSTSYADSVKGRFTISRDNAKNTVYLQMISLKPEDTAVFYCAADEVLSGYYTLDYWGQGTQVTVSS | low polyreactivity
20 | QVQLVESGGGLVQAGGSLRLSCAAPGYIFEFYAMGWYRQAPGKERELVAAISWRGGSTYADSVKGRFTISRDNAKNTVYLQMNSLKPEDTAVYYCNADVEGRYDWTENDYWGQGTQVTVSS | low polyreactivity
21 | QDQLVESVGGLVQAGGSLRLSCAASVRIFYWNAIGWYRQATGKESELVATITRGDRTYYADSVKGRFTISRDNAKNTVYLQMNSLKPEDTAVYYCARSSNPYFYGMYYWGQGTQVTVSS | high polyreactivity
22 | QVQLVESGGGLVQAGGSLRLSCAASGSISPQNVMGWYTQAPGKERELVAAITGGGSTNYADSVKGRFTISRDNAKNTVFLLMNSLKPEDTAVYYCNADYFQDRLDYWGQGTQVTVSS | low polyreactivity

Row | Sequence | polyreactivity (PSR sort gate)
23 | QVQLVESGGGLVQAGGSLRLSCAASGSIFSTYAMGWYRQAPGKERELVAAISVSGSSTYYADSVKGRFTISRDNAKNTVYLQMNSLKPEDTAVYYCNKAFRSVRPRRRYDYWGQGTQVTVSS | low polyreactivity
24 | QVQLVESGGGLVQAGGSLRLSCAATGSIFTAYDMGWYRQAPGKERELVAAINVSAGTTYYADSVKGRFTISRDNAKNTVYLQMNSLKPEDTAVYYCATDRSPTPYTRENIYDYWGQGTQVTVSS | low polyreactivity
25 | QVQLVESGGGLVQAGGSLRLSCAASGRTFVIYAMGWYRQAPGKERELVAAISKGGGSTYYADSVKGRFTISRDNAKNTVYLQMNSLKPEDTAVYYCAAGYGTYYQYSRFDYWGQGTQVTVSS | high polyreactivity
26 | QVQLVESGGGLVQAGGSLRLSCAASGRIRRYTMGWYRQAPGKVRELVASISGNGGSTYYADSVKGRFTISRDNAKNTVYLQMNSLKPEDTAVYYCARTKQEYTFGQFYLGDYWGQGTQVTVSS | low polyreactivity
27 | QVQLVESGGGLVQAGGSLRLSCAASGRIFDQYAMGWYRQAPGKERELVAVISSSGTTNYADSVKGRFTISRDNAKNTVYLQMNSLKPEDTAVYYCAARRQSWFVAAHMDYWGQGTQVTVSS | low polyreactivity
28 | QVQLVESGGGKVQAGGSLRLSCAASGYTFKYYTMGWYRQAPGKERELLAAITRSGGSTYYADSVKGRFTISRDTAKNTVYLQMNSLKPEDTAFYYCAARASYKQPVSFDYWGQGTQVTVSS | high polyreactivity
29 | QVQLVESGGGLVQAGGSLRLSCAASGSTFHYYAMGWYRQAPGKERELVAAISQSGSGTYYADSVKGRFTISRDNAKNTVYLLMNSLKPEDTAVYYCAKDITGLSRYRRDYWGQGTQVTVSS | low polyreactivity
30 | QVQLVESGGGLVQAGGSLRLICAASGTTFGRNAMGWYRQAPGKERELVDAIDSGASTYYADSVKGRFTISRDNAKNTVYLQMNSLKPEDTAVYYCGADVVYDYGGMDYWGQGTQVTVSS | low polyreactivity
31 | QVQLVESGGGLVQAGGSLRLSCAASGRTFGGNTMGWYRQAPGKERELVAAISFSGGSTYYADSVKGRFTISRDNAKNTVYLQMNSLKPEDTAVYYCAKDPITATTLDERVYYWGQGTQVTVSS | low polyreactivity
32 | QVQLVESGGGLVQAGGSLRLSCAASGSTFYYYAMGWYRPAPGKERELVAAISSSGGITYYADSVKGRFTISRDNAKNTVYLQMNSLKPEDTAVYYCAADVIVFYYGPNYWGDIGYGYWGQGTQVTVSS | low polyreactivity
33 | QVQLVESGGGLFQAGGILRLSCAASGIIFWDNAMGWYRQAPGKERELVAAISRSGSRTYYADSVKGRFTISRDNAKNTVYLQMNSLKPEDTAVYYCARRYRARGSMYYWGQGTQVTVSS | high polyreactivity
34 | QVQHVESGGGLVQAGVSLRLSCAASGLTFTRYAMGWDRQAPGKERELVAAISWSGGSTYYADSVKGRFTISRDNAKNTVYLQMNSLKPEDTAVYYCAAEPYKQYTGYYYSGFEFWGQGTQVTVSS | high polyreactivity
35 | QVQLQDSCGGLVQAGGSLRLNCATSGTIFVLWYMGWYRQAPGKERELVATINHGANTYSADSVKGRFTINRDNGNSTVYLQMNSLQPEDTAVYYCAVYAIIVWGLGYWGQGTQVTVSS | high polyreactivity
36 | QVQLVESGGGLVQAGGSLRLSCAASGFIFDRYAMGWYRQAPGKERELVAVISKSGGRTYYADSVKGRFTISRDHAKNTVYLQMNSLKPEDTAVYYCAAYYKSTYVTGDYWGQGTQVTVSS | high polyreactivity
37 | QVQLVESGGGLVQAGGSLRLSCAASGSILYVNAMGWYRQAPGKERELVASITDGGNTYYADSVKGRFTISRDNAKNTVYLQMNSLKPEDTAVYYCNAVGRIKVDYGLEYWGQGTQVTVSS | low polyreactivity
38 | QVQLVESGGGLVQAGGSLRLSCAASGRIFVYNAMGWYRQAPGKERELVAGITASGGSTYYADSGKGRFTISRDNAKNTVYLQMNSLKPEDTAVYYCAATRYKRRYYYWGQGTQVTVSS | high polyreactivity
39 | QVQLVESGGGLVQAGGSLRLTCAASGFTFSYYTMGRYRQAPGKERELVAAISSGGSTYYADSVKGRFTISRDNAKNSVYLQMNSLKPEDTAVYYCNAYYGSYSPANGEYWGQGTQVTVSS | high polyreactivity
40 | QVQLVESGGGLVQAGGSLRLSCAASGGIFTQYAMGWSRQAPWKERELVAAITRSGGTYYADSVKGRFTISRDNAKNTVYLQMNSLKPEDTAVYYCAAEWIDAYYDYDYWGQGTQVTVSS | high polyreactivity
41 | QVQLVESGGGLVQAGGRLRLSCAASGRILYVYLMGWYRQAPGKERELGAAISRRGGGTYYADSVKGRFTISRDNAKNTVYLQMNSLKPEDTAVYYCATDQYYEYDYWGQGTQVTVSS | low polyreactivity
42 | QVQLVESGGGLVQAGGSLRLSCAASGSTFTAYAMGWYRQAPGKERELVAAITSSGGGTYYADSVKGRFTISRDNAKNPVYLQMNSLKPEDTAVYYCAAVPGYGYYNYSDFDYWGQGTQVTVSS | low polyreactivity
43 | QVQLVESGGGLVQAGGSLRLSCAASGIILVNNAMGWYRQAPGTEREFVAAIRYSAGSTYYADSVKGRFTISRDTAKNTVYLQMNSLKAEDTAVYYCARRWKGGWYEYGYWGQGTQVTVAS | high polyreactivity
